The record followed here is patent US20020159989A1 (BETH ISRAEL DEACONESS MEDICAL CENTER, published 2002).

The target of this assay is T1, mouse TSP-1-TSR, expressed as a GAL4 DNA binding domain fusion (pAS2-1TSP1 type 1 construct) (mouse, UniProt P04386 1-147; P35441 377-549).
T1 construct: range 1-147;domain: TSR; also called TSR domain of TSP-1; bait
Kind of assay: yeast two-hybrid counter-screen (HIS3 / lacZ reporters). (In general: Counterscreens check selectivity or assay interference.)

T1 sequence (P04386 other isoform, or with tags, fused parts or gaps limits assumed): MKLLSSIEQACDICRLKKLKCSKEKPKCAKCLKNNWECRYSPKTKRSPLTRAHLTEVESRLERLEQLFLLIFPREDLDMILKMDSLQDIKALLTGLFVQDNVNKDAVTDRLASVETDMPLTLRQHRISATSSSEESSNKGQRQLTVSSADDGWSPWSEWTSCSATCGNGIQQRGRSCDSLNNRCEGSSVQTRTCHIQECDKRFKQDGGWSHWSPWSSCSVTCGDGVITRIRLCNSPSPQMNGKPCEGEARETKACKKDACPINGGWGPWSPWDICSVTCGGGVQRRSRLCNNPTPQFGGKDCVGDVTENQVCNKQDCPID

B1: peptide of SEQ ID NO:1, expressed as a GAL4 activation domain fusion (prey clone from the pACT2 NIH3T3 cDNA library) (peptide)
chain: ANFNQSGNIADSSLSFTFTNSSNGPNLITTQTNSQALSQPIASSNVHDNFMNNEITASKIDDGNNSKPLSPGWTDQTAYNAFGITTGMFNTTTMDDVYNYLFDDEDTPPNPKKEAPWNCCPVSCCGNCCFFRALQSCPQG
notes: range 768-881; Yeast two-hybrid prey; also called peptide of the invention
Consider B1, for which the binding result is listed as “no binding”.
